{
  "source": "patent US5849535A",
  "about": "(Genentech, Inc., priority 1996, dated 1998)",
  "molecules": {"B1": {"name": "human placental lactogen (protein, UniProt P0DML2 27-217, looked up)", "Chorionic somatomammotropin …": "VQTVPLSRLFDHAMLQAHRAHQLAIDTYQEFEETYIPKDQKYSFLHDSQTSFCFSDSIPTPSNMEETQQKSNLELLRISLLLIESWLEPVRFLRSMFANNLVYDTSDSDDYHLLKDLEEGIQTLMGRLEDGSRRTGQILKQTYSKFDTNSHNHDALLKNYGLLYCFRKDMDKVETFLRMVQCRSVEGSCGF"}},
  "key": {"[1]": {"system": "IGF-I levels", "assay": "Single-dose pharmacodynamics, IGF-I levels in Rhesus monkeys", "assay_type": "in vivo", "details": "single dose 1 mg/kg intravenously or subcutaneously; seven-day study", "protocol": "The placebo was 0.5 ml formulation buffer administered subcutaneously. IGF-1 levels were determined as in Example XIII."}, "[2]": {"assay": "In vivo half-life of pegylated wild-type hGH in rats"}, "[3]": {"target": "T1, hGHbp (Homo sapiens, UniProt P10912)", "T1 construct": "the extracellular domain of its receptor (hGHbp)", "T1 sequence (P10912 19-256 limits assumed)": "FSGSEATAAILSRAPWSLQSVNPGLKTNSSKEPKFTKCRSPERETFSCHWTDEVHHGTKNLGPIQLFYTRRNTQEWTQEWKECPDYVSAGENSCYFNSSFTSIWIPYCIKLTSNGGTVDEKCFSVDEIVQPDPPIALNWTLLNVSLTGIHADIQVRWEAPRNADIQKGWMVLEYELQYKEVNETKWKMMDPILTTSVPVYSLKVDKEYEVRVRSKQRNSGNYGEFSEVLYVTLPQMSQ", "details": "Lowman et al., J. Biol. Chem.; cited from earlier work"}},
  "data": [
    {"molecule": "PEG-4/5-B2036: B2036 preparation containing primarily conjugates with four and five PEG(5000) groups", "values": [
      {"measurement": "IGF-I levels after single injection", "setting": "[1]", "value": "reduced at one day after administration, continued to decrease until four days after administration, and remained low throughout the seven-day study"}
    ]},
    {"molecule": "conjugate containing five PEG(5000) groups: pegylated wild-type hGH, approximately 48 kD", "values": [
      {"measurement": "longer half-life than the non-pegylated protein", "setting": "[2]", "value": "~11", "unit": "fold"}
    ]},
    {"molecule": "conjugate containing seven PEG groups: pegylated wild-type hGH, approximately 57 kD", "values": [
      {"measurement": "longer half-life than the non-pegylated protein", "setting": "[2]", "value": "~18", "unit": "fold"}
    ]},
    {"molecule": "wild-type hGH conjugate containing two PEG(5000) groups: pegylated wild-type hGH, approximately 33 kD", "values": [
      {"measurement": "longer half-life than the non-pegylated protein", "setting": "[2]", "value": "~4", "unit": "fold"}
    ]},
    {"molecule": "B1", "values": [
      {"measurement": "binds weaker than hGH", "setting": "[3]", "value": "~ 2000 fold"}
    ]}
  ]
}
